According to patent US20250018053A1 (published 2025):

Target: -
Assay: kinetic binding (Ka/Kdis fit)

B1: Ch-15A7.5 (antibody, V domains shown)
VH: EVKLVESGGGLVQPGGSRKLSCAASGFTFSNYGMAWVRQAPGKGPEWVAFISNLAYGINYADTVTGRFTISRENAKNTLYLEMRSLRSEDTAMYYCARGARATGWFAYWGQGTLVTVSA
VL: DIVMTQSQKFMSTSIGDRVSVTCKASQNVDTHVAWYQEKPGQSPKALIYSASYRYSGVPDRFTGSGSGTDFTLTISNVQSEDLADYFCQQYNSYPLTFGGGTKLEIK
**Q.** With B1 as the binder, how does the Kd read?
**A.** 45.9 nM
